Results: patent publication US20240391997A1 (BRIGHTPATH BIOTHERAPEUTICS, published 2024)

Experiments:
[1] = target: T1, biotinylated human Tim-3-Fc antigen (in-house preparation) (human, biotinylated); experiment: competition flow cytometry, biotinylated Tim-3-Fc premixed with antibody, binding to phosphatidylserine on apoptotic Jurkat cells (ligand not a protein)
T1 construct: limits of the Tim-3 part not given

[2] = target: T1, biotinylated human Tim-3-Fc antigen …; experiment: competition ELISA: biotinylated human Tim-3-Fc premixed with the antibody, added to plate-bound human Galectin-9 (blocked ligand); streptavidin-HRP; Binding (%)
[3] = target: T1, biotinylated human Tim-3-Fc antigen …; experiment: competition flow cytometry, biotinylated Tim-3-Fc premixed with antibody, binding to phosphatidylserine on apoptotic Jurkat cells (ligand not a protein); remark: listed apart in the source
[4] = target: T1, biotinylated human Tim-3-Fc antigen …; experiment: competition ELISA, biotinylated Tim-3-Fc premixed with antibody, binding to coated human Galectin-9
[5] = target: T2, human Tim-3 expressed on cells (Jurkat cells stably expressing, Expi293 cells transiently expressing, … (human, UniProt Q8TDQ0 22-301)); experiment: flow cytometry on Jurkat cells stably expressing human Tim-3, KD from MFI curve
T2 construct: whole, on cells; One entry for all cell-surface forms; the cell type is named under assay; also called human Tim-3 expressed on the cell membrane

[6] = target: T2, human Tim-3 expressed on cells (Jurkat …); experiment: flow cytometry on Expi293 cells transiently expressing human Tim-3, KD from MFI curve
[7] = target: T1, biotinylated human Tim-3-Fc antigen …; experiment: competition ELISA, biotinylated Tim-3-Fc premixed with antibody, binding to coated human Galectin-9; remark: listed apart in the source
[8] = target: T2, human Tim-3 expressed on cells (Jurkat …); experiment: flow cytometry on activated human CD4 T cells, KD from MFI curve
[9] = target: T2, human Tim-3 expressed on cells (Jurkat …); experiment: flow cytometry on activated human CD8 T cells, KD from MFI curve
[10] = target: T1, biotinylated human Tim-3-Fc antigen …; experiment: competition ELISA, biotinylated Tim-3-Fc premixed with antibody, binding to coated human Galectin-9; remark: listed apart in the source
[11] = target: T2, human Tim-3 expressed on cells (Jurkat …); experiment: flow cytometry on Expi293 cells transiently expressing human Tim-3, KD from MFI curve; remark: listed apart in the source
[12] = target: T2, human Tim-3 expressed on cells (Jurkat …); experiment: flow cytometry on Jurkat cells stably expressing human Tim-3, KD from MFI curve; remark: listed apart in the source
[13] = target: T1, biotinylated human Tim-3-Fc antigen …; experiment: competition flow cytometry, biotinylated Tim-3-Fc premixed with antibody, binding to phosphatidylserine on apoptotic Jurkat cells (ligand not a protein); remark: listed apart in the source
[14] = target: T2, human Tim-3 expressed on cells (Jurkat …); experiment: flow cytometry on activated human CD4 T cells, KD from MFI curve; remark: listed apart in the source
[15] = target: T2, human Tim-3 expressed on cells (Jurkat …); experiment: flow cytometry on activated human CD8 T cells, KD from MFI curve; remark: listed apart in the source

Row | Binder | IC50 [1] [nM] | IC50 (read off the curve) [2] [nM] | IC50 [3] [nM] | IC50 [4] [nM] | Kd [5] [nM] | Kd [6] [nM] | inhibition of the binding between human Tim-3 and human Galectin-9 [7] [%] | Kd [8] [nM] | Kd [9] [nM] | IC50 [10] [nM] | Kd [11] [nM] | Kd [12] [nM] | IC50 [13] [nM] | Kd [14] [nM] | Kd [15] [nM]
1 | Hu003_13_F20_LA antibody (antibody, V domains shown) VH: QVQLQESGGGLVKPGGSLKLSCAASGFTFSSYYMSWVRQTPDKRLEWVATISNSGGSTYYPDSVKDRFTISRDNAKNTLYLQMSSLKSEDTAMYYCARDPYYTNYVPMDYWGQGTMVTVSS VL: DIVMTQSPSFLSASVGDRVTITCKASQYVDTYVAWYQQRPGKAPKPLIYSASTRHTGVPSRFSGSGSGTEFTLTISSLQPEDFATYFCAQYSSSPLTFGGGTKLELK | 10.7 | ~0.5 | – | – | – | – | – | – | – | – | – | – | – | – | –
2 | Hu621003ct antibody (bispecific antibody, not shown: a dimerising Fc or GST) scFv 1: QVQLQESGGGLVKPGGSLKLSCAASGFTFSSYYMSWVRQTPDKRLEWVATISNSGGSTYYPDSVKDRFTISRDNAKNTLYLQMSSLKSEDTAMYYCARDPYYTNYVPMDYWGQGTMVTVSSGGGGSGGGGSGGGGSGGGGSDIVMTQSPSFLSASVGDRVTITCKASQYVDTYVAWYQQRPGKAPKPLIYSASTRHTGVPSRFSGSGSGTEFTLTISSLQPEDFATYFCAQYSSSPLTFGGGTKLELK scFv 2: QVQLVQSGAEVKKPGASVKVSCKASGYTFTDYYMDWVRQAPGQGLEWLGYIYPNKGGTSYNQKFKGRVTMTTDKSTSTAYMELRSLRSDDTAVYYCARSGYKAYYAMDYWGQGTTVTVSSGGGGSGGGGSGGGGSGGGGSDIVMTQSQKFMSTSVGDRVSITCKASQSVGNNVAWYQQKPGQSPKLLIYYASNRYTGVPDRFTGSGSGTDFTLTISNMQSEDLADYFCQQHYSSPYTFGGGTKLEIK | – | – | 32.3 | 0.819 | 0.283 | 2.27 | ≥ 90 | – | – | – | – | – | – | – | –
3 | Hu149003ct antibody (bispecific antibody, not shown: a dimerising Fc or GST) scFv 1: QVQLQESGGGLVKPGGSLKLSCAASGFTFSSYYMSWVRQTPDKRLEWVATISNSGGSTYYPDSVKDRFTISRDNAKNTLYLQMSSLKSEDTAMYYCARDPYYTNYVPMDYWGQGTMVTVSSGGGGSGGGGSGGGGSGGGGSDIVMTQSPSFLSASVGDRVTITCKASQYVDTYVAWYQQRPGKAPKPLIYSASTRHTGVPSRFSGSGSGTEFTLTISSLQPEDFATYFCAQYSSSPLTFGGGTKLELK scFv 2: QVQLVQSGAEVKKPGASVKVSCKASGYTFTDYYMDWVRQAPGQGLEWLGYIYPNKGGTSYNQKFKGRVTMTTDKSTSTAYMELRSLRSDDTAVYYCARSGYGNYYTMDYWGQGTTVTVSSGGGGSGGGGSGGGGSGGGGSDIVMTQSQKFMSTSVGDRVSITCKASQSVGNNVAWYQQKPGQSPKLLIYYASNRYTGVPDRFTGSGSGTDFTLTISNMQSEDLADYFCQQHYSSPSTFGGGTKLEIK | – | – | 32.3 | 1.12 | 0.904 | 4.16 | ≥ 90 | 0.917 | 0.97 | – | – | – | – | – | –
4 | Hu428003ct antibody (bispecific antibody, not shown: a dimerising Fc or GST) scFv 1: QVQLQESGGGLVKPGGSLKLSCAASGFTFSSYYMSWVRQTPDKRLEWVATISNSGGSTYYPDSVKDRFTISRDNAKNTLYLQMSSLKSEDTAMYYCARDPYYTNYVPMDYWGQGTMVTVSSGGGGSGGGGSGGGGSGGGGSDIVMTQSPSFLSASVGDRVTITCKASQYVDTYVAWYQQRPGKAPKPLIYSASTRHTGVPSRFSGSGSGTEFTLTISSLQPEDFATYFCAQYSSSPLTFGGGTKLELK scFv 2: QVQLVQSGAEVKKPGASVKVSCKASGYTFTDYYMDWVRQAPGQGLEWLGYIYPNKGGTSYNQKFKGRVTMTTDKSTSTAYMELRSLRSDDTAVYYCARGGYYSYYSYDYWGQGTTVTVSSGGGGSGGGGSGGGGSGGGGSDIVMTQSQKFMSTSVGDRVSITCKASQSVGNNVAWYQQKPGQSPKLLIYYASNRYTGVPDRFTGSGSGTDFTLTISNMQSEDLADYFCQQHYSSPYTFGGGTKLEIK | – | – | 27.3 | 0.712 | 0.232 | 2.3 | ≥ 90 | 0.279 | 0.263 | – | – | – | – | – | –
5 | Ch428003ct antibody (bispecific antibody, not shown: a dimerising Fc or GST) scFv 1: EVMLMESGGGLVKLGGSLKLSCAASGFTFSSYYMSWVRQTPEKRLEWVATISNSGGSIYYLDSVKDRFTISRDNAKNTLYLQMSSLNSEDTAVYYCARDPYYSNYVPMDYWGQGTSVTVSSGGGGSGGGGSGGGGSGGGGSSIVMTQTPKFMSTSVGDRVSVTCKASQYVDTYVAWYQQKPGQSPKPLIYSASTRHTGVPARFTGSGSGTDFTLTISNVQSEDLAEYFCAQYSSSPLTFGAGTKLELK scFv 2: QVQLQQSGPELVKPGDSVKMSCKASGYTFTDYYMDWVKQSHGKSLEWIGYIYPNNGGTSYNQKFKGKATLTVDKSSSTAYMELHSLTSEDSAVYYCARGGYYSYYSYDYWGQGTTLTVSSGGGGSGGGGSGGGGSGGGGSSIVMTQTPKFLPVSAGDRVTMTCKASQSVGNNVAWYQQKPGQSPKLLIYYASNRYTGVPDRFTGSGSGTDFTFTISSVQVEDLAVYFCQQHYSSPYTFGTGTKLEIK | – | – | – | – | – | – | ≥ 90 | – | – | 0.454 | 1.37 | 0.194 | 12.8 | 0.218 | –
6 | Ch149003ct antibody (bispecific antibody, not shown: a dimerising Fc or GST) scFv 1: EVMLMESGGGLVKLGGSLKLSCAASGFTFSSYYMSWVRQTPEKRLEWVATISNSGGSIYYLDSVKDRFTISRDNAKNTLYLQMSSLNSEDTAVYYCARDPYYSNYVPMDYWGQGTSVTVSSGGGGSGGGGSGGGGSGGGGSSIVMTQTPKFMSTSVGDRVSVTCKASQYVDTYVAWYQQKPGQSPKPLIYSASTRHTGVPARFTGSGSGTDFTLTISNVQSEDLAEYFCAQYSSSPLTFGAGTKLELK scFv 2: QVQLQQSGPERVKPGDSVKMSCKASGYTFTDYYMDWVKQSHGKSLEWIGYIYPNNGGTSYNQKFKGKATLTVDKSSSTAYMELHSLTSEDSAVYYCARSGYGNYYTMDYWGQGTSVTVSAGGGGSGGGGSGGGGSGGGGSSIVMTQTPKFMPVSAGDRVTMTCKASQSVGNNVAWYQQKPGQSPKLLIYYASNRYTGVPDRFTGSGSGTDFTFTISSVQVEDLAVYFCQQHYSSPSTFGTGTKLEIK | – | – | – | – | – | – | ≥ 90 | – | – | 0.589 | 2.17 | 0.404 | 22.9 | 0.508 | 0.558
7 | Ch621003ct antibody (bispecific antibody, not shown: a dimerising Fc or GST) scFv 1: EVMLMESGGGLVKLGGSLKLSCAASGFTFSSYYMSWVRQTPEKRLEWVATISNSGGSIYYLDSVKDRFTISRDNAKNTLYLQMSSLNSEDTAVYYCARDPYYSNYVPMDYWGQGTSVTVSSGGGGSGGGGSGGGGSGGGGSSIVMTQTPKFMSTSVGDRVSVTCKASQYVDTYVAWYQQKPGQSPKPLIYSASTRHTGVPARFTGSGSGTDFTLTISNVQSEDLAEYFCAQYSSSPLTFGAGTKLELK scFv 2: QIQLQQSGPELVKPGDSVKMSCKASGYTFTDYYMDWVKQSHGKSLEWIGYIYPNNGGTSYNQKFKGKATLTVDKSSSTAYMELHSLTSEDSAVYYCARSGYKAYYAMDYWGQGTTLTVSSGGGGSGGGGSGGGGSGGGGSSIVMTQTPKFLPVSAGDRVTMTCKASQSVGNNVAWYQQKPGQSPKLLIYYASNRYTGVPDRFTGSGSGTDFTFTISSVQVEDLAVYFCQQHYSSPYTFGSGTKLEIK | – | – | – | – | – | – | ≥ 90 | – | – | 0.751 | 1.82 | 0.256 | 16.3 | 0.287 | 0.308
